Results published in IntAct's records for PubMed 24434579.

B1: Seipin (Saccharomyces cerevisiae), Q06058 (parent)
chain: MKINVSRPLQFLQWSSYIVVAFLIQLLIILPLSILIYHDFYLRLLPADSSNVVPLNTFNILNGVQFGTKFFQSIKSIPVGTDLPQTIDNGLSQLIPMRDNMEYKLDLNLQLYCQSKTDHLNLDNLLIDVYRGPGPLLGAPGGSNSKDEKIFHTSRPIVCLALTDSMSPQEIEQLGPSRLDVYDEEWLNTIRIEDKISLESSYETISVFLKTEIAQRNLIIHPESGIKFRMNFEQGLRNLMLRKRFLSYIIGISIFHCIICVLFFITGCTAFIFVRKGQEKSKKHS
partner: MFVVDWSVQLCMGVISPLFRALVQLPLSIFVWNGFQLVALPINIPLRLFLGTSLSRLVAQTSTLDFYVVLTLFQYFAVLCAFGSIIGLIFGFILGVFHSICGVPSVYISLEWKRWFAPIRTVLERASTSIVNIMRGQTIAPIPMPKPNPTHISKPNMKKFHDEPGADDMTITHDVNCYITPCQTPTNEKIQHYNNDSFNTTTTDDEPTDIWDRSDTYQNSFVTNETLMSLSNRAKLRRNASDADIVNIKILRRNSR

Variants of: B1
Conditions: with ldb16_yeast LDB16, P25587

effect of a mutation on the interaction | Variant
decreasing interaction strength | MKINVSRPLQFLQWSSYIVVAFLIQLLIILPLSILIYHDFYLRLLPADSSNVVPLNTFNILNGVQFGTKFFQSIKSIPVGTDLPQTIDNGLSQLIPMRDNMEYKLDLNLQLYCQSKTDHLNLDNLLIDVYRGPGPLLGAPGGSNSKDEKIFHTSRPIVCLALTDSMSPQEIEQLGPSRLDVYDEEWLNTIRIEDKISLESSYETISVFLKTEIAQRNLIIHPESPIKFRMNFEQGLRNLMLRKRFLSYIIGISIFHCIICVLFFITGCTAFIFVRKGQEKSKKHS [G225P]
